Molecular target: T1, PAR3 (Homo sapiens, UniProt O00254)
T1 construct: mouse monoclonal antibody to PAR3, clone 19b (clonel9b; 25 μg/mL) for 30 minutes; endogenous in cells; host or cells: THP1-null (wildtype) cells, PMA-differentiated
T1 sequence (O00254 22-374): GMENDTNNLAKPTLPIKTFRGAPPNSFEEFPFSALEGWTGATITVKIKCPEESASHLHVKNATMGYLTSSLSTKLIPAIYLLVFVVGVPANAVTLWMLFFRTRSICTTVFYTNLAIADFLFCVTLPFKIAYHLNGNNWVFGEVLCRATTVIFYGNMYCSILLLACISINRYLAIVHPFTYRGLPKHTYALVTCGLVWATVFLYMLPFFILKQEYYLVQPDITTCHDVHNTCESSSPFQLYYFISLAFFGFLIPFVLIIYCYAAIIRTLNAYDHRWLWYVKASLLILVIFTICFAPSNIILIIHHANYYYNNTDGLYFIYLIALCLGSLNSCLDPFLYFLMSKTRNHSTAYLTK
Assay: Caspase 1 activity assay in THP1 cells after blocking PAR3 with monoclonal antibody clone 19b
Format: cell-based
Conditions: clone 19b 25 μg/mL for 30 minutes before APC 4 μg/mL, TR47 50 μM or P3R 50 μM
Method: THP1 or (A) NLRP3 deficient cells (THP1-defNLRP3) cells were plated at a final concentration of 1×10^6/mL in 96 well plates and incubated with PMA (0.5 μM) for 3 hours 37° C. in supplemented RPMI. Media was subsequently changed every 24 hours for 3 days. In brief, selected wells were treated with APC (4 μg/mL), TR47 (50 μM) or P3R (50 μM) for 1 hour, washed with DPBS, and incubated with LPS (1 μg/mL) for 3 hours at 37° C. in serum-free RPMI. After a DPBS wash, cells were incubated with ATP (5 mM) in the presence or absence of 10 μM YVAD (caspase 1 inhibitor) or 2.5 μM ZVAD (pan-caspase inhibitor) for 45 minutes at 37° C. […] Again, cells were washed with DPBS and incubated with ATP (5 mM) in the presence or absence of 10 μM YVAD (caspase 1 inhibitor) or 2.5 μM ZVAD (pan-caspase inhibitor) for 45 minutes prior to performing the caspase 1 activity following manufacturer's directions measuring luminescence. […] After a DPBS wash, cells were incubated with ATP (5 mM) in the presence or absence of 10 μM YVAD (caspase 1 inhibitor) or 2.5 μM ZVAD (pan-caspase inhibitor) for 45 minutes at 37° C., prior to performing the caspase 1 activity assay following manufacturer's directions measuring luminescence (relative luminescent units, RLU). […]

**Q.** With “GAPPNSFEEFPFSALEGWTGATIT [P3R, PAR3-derived 24-mer peptide]” as the sequence, how does the “effect of blocking PAR3 on anti-inflammatory activity (caspase 1)” value read?
**A.** very significantly reduced the anti-inflammatory activity

**Q.** With “NPNDKYEPFWEDEEKNESGL [TR47, PAR1-derived 20 amino acid peptide]” as the sequence, how does the “effect of blocking PAR3 on anti-inflammatory activity (caspase 1)” value read?
**A.** less significantly reduced the activity

Source: US20220313780A1, “METHODS AND COMPOSITIONS FOR TREATING INFLAMMATORY CONDITIONS” (THE SCRIPPS RESEARCH INSTITUTE, priority 2019, published 2022)
